Source: US5618696A, “Human kunitz-type protease inhibitor and variants thereof” (Novo Nordisk A/S, priority 1992, dated 1997)
Where a chain is given by its changes, count along the chain named. Numbers in names are those of the source. Each block holds one molecule with its values, some of them ahead of it. Where no end group is shown, it is not given here.

Legend:
[1] = target: T1, granulocyte elastase (Homo sapiens, UniProt P08246); details: cited from earlier work
T1 sequence (P08246 30-267): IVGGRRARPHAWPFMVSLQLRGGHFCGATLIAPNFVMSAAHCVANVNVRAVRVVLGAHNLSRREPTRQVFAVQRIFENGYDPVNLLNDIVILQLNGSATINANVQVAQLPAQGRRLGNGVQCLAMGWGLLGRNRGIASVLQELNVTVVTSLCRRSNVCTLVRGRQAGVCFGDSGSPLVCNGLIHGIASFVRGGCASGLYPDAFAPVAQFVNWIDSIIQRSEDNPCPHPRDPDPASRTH

[2] = system: collagenase; details: cited from earlier work
[3] = Net charge of the inhibitor; type: physicochemical
[4] = high doses, including cardiopulmonary bypass operations; cited from earlier work
[5] = target: T2, bovine chymotrypsin (TLCK treated) (Bos taurus, UniProt P00766); test: Inhibition of chymotrypsin by HKIB9 variants; type: biochemical; details: at 1 μM
T2 construct: purchased Sigma Chemical Co. (St. Louis, Mo., U.S.A.)
Description: (§1) Their concentration was determined from the absorbance at 214 nm using aprotinin as a standard. Porcine trypsin was obtained from Novo Nordisk A/S, bovine chymotrypsin (TLCK treated) was obtained from Sigma Chemical Co. (St. Louis, Mo., U.S.A.). Human neutrophil cathepsin G and elastase were purified from extracts of PMNs according to the method described by Baugh and Travis, Biochemistry 15, 1976, pp. 836-843.
(§2) Peptidyl nitroanilide substrates S2251 and S2586 were obtained from Kabi (Stockholm, Sweden). S7388 and M4765 were obtained from Sigma Chemical Co.
(§3) Serine proteinases were incubated with various concentrations of the variants for 30 minutes. Substrate was then added and residual proteinase activity was measured at 405 nm.

[6] = target: T3, Porcine trypsin (Sus scrofa, UniProt P00761); test: Inhibition of trypsin by HKIB9 variants; type: biochemical; details: at 1 μM
T3 construct: purchased Novo Nordisk A/S
T3 sequence (P00761 9-231): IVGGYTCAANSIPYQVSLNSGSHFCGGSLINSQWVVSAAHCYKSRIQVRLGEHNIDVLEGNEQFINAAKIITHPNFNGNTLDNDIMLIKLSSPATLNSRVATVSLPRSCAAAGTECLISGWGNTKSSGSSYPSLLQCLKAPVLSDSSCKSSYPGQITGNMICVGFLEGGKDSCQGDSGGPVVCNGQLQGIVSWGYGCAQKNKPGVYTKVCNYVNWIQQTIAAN
Description: as §1, §2, §3

[7] = target: T4, Human neutrophil cathepsin G (Homo sapiens, UniProt P08311); test: Inhibition of cathepsin G by HKIB9 variants; type: biochemical; details: at 1 μM
T4 construct: Human neutrophil cathepsin G and elastase were purified from extracts of PMNs; from tissue; host or cells: human polymorphonuclear leukocytes (PMNs), method of Baugh and Travis
T4 sequence (P08311 21-255): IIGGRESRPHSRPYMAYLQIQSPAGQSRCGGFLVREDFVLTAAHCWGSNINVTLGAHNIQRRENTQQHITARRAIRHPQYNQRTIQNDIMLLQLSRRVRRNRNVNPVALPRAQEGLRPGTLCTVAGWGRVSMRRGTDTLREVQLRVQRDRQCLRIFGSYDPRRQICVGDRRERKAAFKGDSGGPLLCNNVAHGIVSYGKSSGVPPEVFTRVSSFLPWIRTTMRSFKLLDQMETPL
Description: as §1, §2, §3

[8] = target: plasmakallikrein (Homo sapiens, UniProt P03952); details: cited from earlier work
Sequence of plasmakallikrein (P03952 20-638, species assumed): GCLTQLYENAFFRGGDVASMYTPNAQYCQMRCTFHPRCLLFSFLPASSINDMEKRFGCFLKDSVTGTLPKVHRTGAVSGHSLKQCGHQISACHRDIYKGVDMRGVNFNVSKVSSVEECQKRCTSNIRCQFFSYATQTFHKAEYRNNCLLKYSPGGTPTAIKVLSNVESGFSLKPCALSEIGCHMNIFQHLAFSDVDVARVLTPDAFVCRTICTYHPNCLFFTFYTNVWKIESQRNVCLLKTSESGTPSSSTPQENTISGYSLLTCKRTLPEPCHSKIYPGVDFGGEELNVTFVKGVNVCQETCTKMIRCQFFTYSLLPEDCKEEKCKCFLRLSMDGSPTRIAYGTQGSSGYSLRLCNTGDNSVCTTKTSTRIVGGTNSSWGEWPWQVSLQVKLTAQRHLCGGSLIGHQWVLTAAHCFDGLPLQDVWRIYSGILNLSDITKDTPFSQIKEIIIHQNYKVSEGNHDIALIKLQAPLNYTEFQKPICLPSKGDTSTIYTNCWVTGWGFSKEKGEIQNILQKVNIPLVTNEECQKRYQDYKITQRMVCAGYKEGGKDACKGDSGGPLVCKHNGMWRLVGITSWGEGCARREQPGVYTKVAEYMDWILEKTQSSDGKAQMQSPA

[9] = target: Human neutrophil elastase (human, UniProt P08246); test: enzyme inhibition: proteinase incubated with various concentrations of the variant for 30 min, residual activity on peptidyl nitroanilide substrate at 405 nm
Description: as §3

[10] = target: bovine chymotrypsin (TLCK treated) (bovine) (UniProt P00766)

Molecule: aprotinin(1-58, Val15)
effect on / selectivity for granulocyte elastase [1]: relatively high selectivity | effect on collagenase [2]: inhibitory effect

Molecule: HKI B9: novel human Kunitz-type protease inhibitor domain, SEQ ID No. 1, produced from yeast strain KFN-1830 (DLLPNVCAFPMEKGPCQTYMTRWFFNFETGECELFAYGGCGGNSNNFLRKEKCEKFCKFT)
net charge [3]: zero

Molecule: aprotinin (1-58, Ala15)
effect on / selectivity for granulocyte elastase [1]: weak effect

Molecule: aprotinin [reference compound]
net charge [3]: strongly positive | blood loss in connection with cardiac surgery [4]: significantly reduces blood loss

inhibition of chymotrypsin [5]: 5% | inhibition of trypsin [6]: not to inhibit | inhibition of cathepsin G [7]: not to inhibit
Molecule: [Q15V, T16A]-HKIB9 (DLLPNVCAFPMEKGPCVAYMTRWFFNFETGECELFAYGGCGGNSNNFLRKEKCEKFCKFT) [KFN 1930, HKIB9 Kunitz domain variant produced from yeast strain KFN-1930 (plasmid pKFN-1916)]

Molecule: aprotinin (3-58, Arg15, Ala17, Ser42)
plasmakallikrein inhibitory effect [8]: excellent

inhibition of chymotrypsin [5]: 5% | inhibition of trypsin [6]: not to inhibit | inhibition of cathepsin G [7]: not to inhibit
Molecule: [Q15V, T16G]-HKIB9 (DLLPNVCAFPMEKGPCVGYMTRWFFNFETGECELFAYGGCGGNSNNFLRKEKCEKFCKFT) [KFN 1902, HKIB9 Kunitz domain variant produced from yeast strain KFN-1902 (plasmid pKFN-1892)]

Ki [9]: 140 nM | residual proteinase activity measured at 405 nm [10]: 5%
B1: [Q15V, T16G]-HKIB9 (other)
chain: DLLPNVCAFPMEKGPCVGYMTRWFFNFETGECELFAYGGCGGNSNNFLRKEKCEKFCKFT
modifications: ends and bridges not checked; cysteine pairing not given here

Ki [9]: 64 nM | residual proteinase activity measured at 405 nm [10]: 5%
B2: [Q15V, T16A]-HKIB9 (other)
chain: B1 chain with G18A
modifications: ends and bridges not checked; cysteine pairing not given here
